Measurements reported in patent US6682898B2, “High-throughput screening assays for modulators of STAT4 activity” (Tularik Inc., priority 1998, dated 2004).
Non-standard residues stand in square brackets, D forms with d. No end group written: not given here. pY = N[C@@H](Cc1ccc(OP(=O)(O)O)cc1)C(=O)O

What was measured:
Syp = molecular target: T1, Syp (Homo sapiens, UniProt Q06124); test: SH2 domain protein binding assay, Syp; set-up: key: +++ = high affinity binding
T1 sequence (Q06124 1-593): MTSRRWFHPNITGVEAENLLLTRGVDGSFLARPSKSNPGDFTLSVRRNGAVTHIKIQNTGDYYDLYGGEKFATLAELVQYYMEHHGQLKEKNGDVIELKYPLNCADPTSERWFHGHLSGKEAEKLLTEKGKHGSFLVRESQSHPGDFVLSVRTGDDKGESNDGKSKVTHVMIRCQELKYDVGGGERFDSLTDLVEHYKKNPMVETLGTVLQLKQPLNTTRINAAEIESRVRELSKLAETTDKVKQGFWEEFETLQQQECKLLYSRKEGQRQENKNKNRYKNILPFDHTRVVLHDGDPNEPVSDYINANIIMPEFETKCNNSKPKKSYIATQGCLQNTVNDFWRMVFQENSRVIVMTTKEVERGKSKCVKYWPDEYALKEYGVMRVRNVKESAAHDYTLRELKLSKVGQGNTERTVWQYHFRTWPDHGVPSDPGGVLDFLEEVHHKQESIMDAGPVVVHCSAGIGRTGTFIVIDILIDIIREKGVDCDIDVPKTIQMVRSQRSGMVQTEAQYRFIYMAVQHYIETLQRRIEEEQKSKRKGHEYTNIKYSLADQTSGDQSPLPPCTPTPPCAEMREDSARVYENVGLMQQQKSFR
Excerpt: (§1) This Example describes binding assays for various proteins that contain SH2 domains.

STAT6 = molecular target: T2, STAT6 (Homo sapiens, UniProt P42226); test: SH2 domain protein binding assay, STAT6; set-up: key: +++ = high affinity binding
T2 sequence (P42226 1-847): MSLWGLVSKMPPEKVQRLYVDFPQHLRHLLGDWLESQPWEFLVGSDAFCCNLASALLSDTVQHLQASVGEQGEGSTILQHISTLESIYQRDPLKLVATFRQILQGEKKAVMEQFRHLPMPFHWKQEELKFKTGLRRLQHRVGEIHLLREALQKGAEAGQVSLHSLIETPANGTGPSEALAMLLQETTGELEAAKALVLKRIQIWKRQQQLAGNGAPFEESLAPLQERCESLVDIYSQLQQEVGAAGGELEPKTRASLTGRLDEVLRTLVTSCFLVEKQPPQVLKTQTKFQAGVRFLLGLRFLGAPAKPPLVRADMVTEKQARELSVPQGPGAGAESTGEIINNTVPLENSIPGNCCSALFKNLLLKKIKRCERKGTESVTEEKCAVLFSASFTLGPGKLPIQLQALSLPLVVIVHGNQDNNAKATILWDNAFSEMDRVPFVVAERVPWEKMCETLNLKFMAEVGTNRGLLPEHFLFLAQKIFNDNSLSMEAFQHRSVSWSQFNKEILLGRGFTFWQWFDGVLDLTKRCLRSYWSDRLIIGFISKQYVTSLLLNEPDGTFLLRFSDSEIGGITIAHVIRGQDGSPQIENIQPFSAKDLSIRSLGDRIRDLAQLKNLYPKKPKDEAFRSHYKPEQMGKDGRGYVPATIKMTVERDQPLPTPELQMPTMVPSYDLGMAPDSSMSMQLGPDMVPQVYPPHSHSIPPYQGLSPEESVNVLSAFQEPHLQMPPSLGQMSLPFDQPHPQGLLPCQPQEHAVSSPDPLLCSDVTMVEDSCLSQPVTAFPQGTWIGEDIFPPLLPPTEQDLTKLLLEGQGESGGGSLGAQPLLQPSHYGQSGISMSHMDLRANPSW
Excerpt: as §1

P85-PI3K = P85-PI3K (Homo sapiens, UniProt P27986); test: SH2 domain protein binding assay, P85-PI3K; set-up: key: +++ = high affinity binding
Excerpt: as §1

Ras-GAP = molecular target: T3, Ras-GAP (Homo sapiens, UniProt P20936); test: SH2 domain protein binding assay, Ras-GAP; set-up: key: +++ = high affinity binding
T3 sequence (P20936 1-1047): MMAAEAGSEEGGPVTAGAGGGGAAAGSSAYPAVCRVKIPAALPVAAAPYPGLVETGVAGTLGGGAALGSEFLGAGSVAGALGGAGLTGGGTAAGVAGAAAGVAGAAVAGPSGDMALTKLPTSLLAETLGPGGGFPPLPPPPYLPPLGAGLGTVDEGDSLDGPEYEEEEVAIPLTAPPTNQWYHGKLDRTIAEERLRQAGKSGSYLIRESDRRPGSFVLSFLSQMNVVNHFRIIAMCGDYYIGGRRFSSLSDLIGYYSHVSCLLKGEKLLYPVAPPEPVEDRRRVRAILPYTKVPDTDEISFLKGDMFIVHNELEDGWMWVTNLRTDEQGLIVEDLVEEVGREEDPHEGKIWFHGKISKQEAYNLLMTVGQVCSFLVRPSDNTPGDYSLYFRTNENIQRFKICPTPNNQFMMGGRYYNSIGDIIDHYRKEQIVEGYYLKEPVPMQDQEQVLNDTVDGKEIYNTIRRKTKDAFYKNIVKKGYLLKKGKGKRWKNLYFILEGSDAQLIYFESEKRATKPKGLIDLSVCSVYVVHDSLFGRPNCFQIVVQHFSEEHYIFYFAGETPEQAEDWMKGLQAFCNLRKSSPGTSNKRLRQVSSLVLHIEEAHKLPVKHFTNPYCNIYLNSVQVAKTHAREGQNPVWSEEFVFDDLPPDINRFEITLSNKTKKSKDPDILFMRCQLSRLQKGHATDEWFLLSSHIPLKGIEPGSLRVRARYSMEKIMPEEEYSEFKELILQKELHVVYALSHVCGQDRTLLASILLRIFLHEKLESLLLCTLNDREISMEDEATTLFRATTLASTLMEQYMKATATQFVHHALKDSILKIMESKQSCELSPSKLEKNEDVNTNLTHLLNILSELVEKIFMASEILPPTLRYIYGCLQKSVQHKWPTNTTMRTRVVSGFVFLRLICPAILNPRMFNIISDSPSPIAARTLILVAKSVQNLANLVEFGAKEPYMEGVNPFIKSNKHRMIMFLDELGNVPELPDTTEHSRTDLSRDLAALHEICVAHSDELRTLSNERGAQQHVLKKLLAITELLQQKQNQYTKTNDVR
Excerpt: as §1

Src = Src (Homo sapiens, UniProt P12931); test: SH2 domain protein binding assay, Src; set-up: key: +++ = high affinity binding
Excerpt: as §1

PLCγ = test: SH2 domain protein binding assay, PLCγ; set-up: key: +++ = high affinity binding
Excerpt: as §1

STAT1 protein [1] = molecular target: T4, STAT1 protein (UniProt P42224 1-750, limits assumed); test: method not stated; told of the SH2 domain of STAT1 at the start of Example 1
T4 sequence (looked up): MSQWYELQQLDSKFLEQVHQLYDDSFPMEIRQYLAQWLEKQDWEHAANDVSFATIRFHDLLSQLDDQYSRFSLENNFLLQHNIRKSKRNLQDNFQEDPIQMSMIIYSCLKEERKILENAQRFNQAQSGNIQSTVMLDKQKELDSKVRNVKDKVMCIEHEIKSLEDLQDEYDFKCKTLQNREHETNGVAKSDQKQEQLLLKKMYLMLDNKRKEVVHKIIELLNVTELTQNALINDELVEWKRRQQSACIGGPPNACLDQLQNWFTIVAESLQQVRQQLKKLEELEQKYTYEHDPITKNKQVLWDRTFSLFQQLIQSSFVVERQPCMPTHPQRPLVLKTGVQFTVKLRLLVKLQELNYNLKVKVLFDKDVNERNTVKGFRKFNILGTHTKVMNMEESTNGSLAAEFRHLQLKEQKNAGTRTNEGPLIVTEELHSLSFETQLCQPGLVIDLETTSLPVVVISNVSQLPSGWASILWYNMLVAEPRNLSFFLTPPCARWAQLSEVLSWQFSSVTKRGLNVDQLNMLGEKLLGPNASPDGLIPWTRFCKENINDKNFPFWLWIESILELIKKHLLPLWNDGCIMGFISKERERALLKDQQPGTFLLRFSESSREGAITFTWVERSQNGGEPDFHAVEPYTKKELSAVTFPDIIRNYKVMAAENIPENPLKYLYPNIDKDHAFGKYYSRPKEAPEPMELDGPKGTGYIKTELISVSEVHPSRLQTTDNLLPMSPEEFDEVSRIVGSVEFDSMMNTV

STAT1 protein [2] = molecular target: T4, STAT1 protein; test: concentration at 50% binding of the STAT protein to the phosphotyrosine peptide (Example 4)
STAT4 = molecular target: T5, STAT4 (UniProt Q14765 1-748, limits assumed); test: as above
T5 construct: also called STAT4 polypeptide
T5 sequence (looked up): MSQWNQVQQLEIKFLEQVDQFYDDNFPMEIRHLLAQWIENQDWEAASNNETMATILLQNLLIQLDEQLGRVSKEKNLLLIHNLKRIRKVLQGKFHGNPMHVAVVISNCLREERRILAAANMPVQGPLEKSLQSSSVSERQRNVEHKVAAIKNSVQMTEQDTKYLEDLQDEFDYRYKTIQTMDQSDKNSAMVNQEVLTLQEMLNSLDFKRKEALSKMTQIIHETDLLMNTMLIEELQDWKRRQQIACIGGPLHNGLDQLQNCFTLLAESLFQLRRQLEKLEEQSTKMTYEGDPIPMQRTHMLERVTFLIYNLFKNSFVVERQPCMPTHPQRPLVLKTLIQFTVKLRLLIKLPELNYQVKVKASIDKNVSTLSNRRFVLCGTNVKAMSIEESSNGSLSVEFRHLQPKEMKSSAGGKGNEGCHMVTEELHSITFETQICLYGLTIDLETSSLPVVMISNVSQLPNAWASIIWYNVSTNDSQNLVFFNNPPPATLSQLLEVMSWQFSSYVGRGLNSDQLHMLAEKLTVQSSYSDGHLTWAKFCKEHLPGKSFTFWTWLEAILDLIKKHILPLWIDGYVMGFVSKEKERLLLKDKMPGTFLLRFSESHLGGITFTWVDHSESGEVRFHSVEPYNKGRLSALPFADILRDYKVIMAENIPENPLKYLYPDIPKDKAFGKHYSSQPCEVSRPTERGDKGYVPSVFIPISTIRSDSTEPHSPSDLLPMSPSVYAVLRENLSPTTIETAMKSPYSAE

Chain of P85-PI3K (P27986 whole entry, the tested form may be a part): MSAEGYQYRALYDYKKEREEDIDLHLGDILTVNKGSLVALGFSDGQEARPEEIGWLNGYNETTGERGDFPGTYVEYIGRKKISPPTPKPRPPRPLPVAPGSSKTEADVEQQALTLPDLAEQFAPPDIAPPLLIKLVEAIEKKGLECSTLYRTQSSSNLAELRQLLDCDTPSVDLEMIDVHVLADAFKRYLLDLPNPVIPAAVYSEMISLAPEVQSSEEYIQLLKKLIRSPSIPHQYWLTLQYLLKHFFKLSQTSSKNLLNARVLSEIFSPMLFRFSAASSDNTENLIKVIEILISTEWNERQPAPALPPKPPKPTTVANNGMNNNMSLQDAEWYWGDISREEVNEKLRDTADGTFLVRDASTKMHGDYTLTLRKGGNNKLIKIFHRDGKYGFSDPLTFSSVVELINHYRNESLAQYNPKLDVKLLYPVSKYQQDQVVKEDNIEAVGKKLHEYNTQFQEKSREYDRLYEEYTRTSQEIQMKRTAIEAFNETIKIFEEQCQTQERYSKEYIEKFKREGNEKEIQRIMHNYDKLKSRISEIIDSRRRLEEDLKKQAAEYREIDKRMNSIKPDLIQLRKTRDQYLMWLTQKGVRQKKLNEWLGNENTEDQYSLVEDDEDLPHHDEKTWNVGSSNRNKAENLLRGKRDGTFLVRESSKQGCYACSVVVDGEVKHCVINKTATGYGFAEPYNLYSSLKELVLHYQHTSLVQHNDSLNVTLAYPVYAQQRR

YTAVQP: phosphotyrosine-containing peptide ligand ([pY]TAVQP)
binding to Syp (Syp): +++

GYKPFQDLI (G[pY]KPFQDLI) [phosphotyrosine-containing peptide ligand, Y is phosphotyrosine]
binding to STAT6 (STAT6): +++

YMDM: phosphotyrosine-containing peptide ligand ([pY]MDM)
binding to P85-PI3K (P85-PI3K): +++

YMAP: phosphotyrosine-containing peptide ligand ([pY]MAP)
binding to Ras-GAP (Ras-GAP): +++

YMNM: phosphotyrosine-containing peptide ligand ([pY]MNM)
binding to P85-PI3K (P85-PI3K): +++

YEEI: phosphotyrosine-containing peptide ligand
binding to Src (Src): +++

YITPLP: phosphotyrosine-containing peptide ligand ([pY]ITPLP)
binding to PLCγ (PLCγ): +++

B1: interferon-γ receptor-derived peptide sequence GY^PDKPHVL (peptide)
peptide: G[pY]DKPHVL
Kd (STAT1 protein [1]): ~120 nM

B2: SFGY*DKPHVL (peptide)
peptide: SFG[pY]DKPHVL
IC50 (STAT1 protein [2]): 600 nM | IC50 (STAT4): 10000 nM
